{"source": "patent US20080187980A1", "about": "“Method for identifying potential agonists or antagonists using the three-dimensional structure of caspase-7” (Vertex Pharmaceuticals Incorporated, priority 1999, published 2008)", "molecules": {"B1": {"name": "Wild-type caspase-8 (protein)", "chain 1": "RGYCLIINNHNFAKAREKVPKLHSIRDRNGTHLDAGALTTTFEELHFEIKPHDDCTVEQIYEILKIYQLMDHSNMDCFICCILSHGDKGIIYGTDGQEAPIYELTSQFTGLKCPSLAGKPKVFFIQACQGDNYQKGIPVETD", "chain 2": "LSSPQTRYIPDEADFLLGMATVNNCVSYRNPAEGTWYIQSLCQSLRERCPRGDDILTILTEVNYEVSNKDDKKNMGKQMPQPTFTLRKKLVFPSD"}, "B2": {"name": "Triple mutant caspase-8 (residues 233-479; Lys to Arg at residues 246, 250 and 253; Pro370 and Val371 removed) (protein)", "chain": "RGYCLIINNHNFARARERVPRLHSIRDRNGTHLDAGALTTTFEELHFEIKPHDDCTVEQIYEILKIYQLMDHSNMDCFICCILSHGDKGIIYGTDGQEAPIYELTSQFTGLKCPSLAGKPKVFFIQACQGDNYQKGIPVETDSEEQPYLEMDLSSPQTRYIPDEADFLLGMATVNNCVSYRNPAEGTWYIQSLCQSLRERCPRGDDILTILTEVNYEVSNKDDKKNMGKQMPQPTFTLRKKLVFPSD"}}, "key": {"caspase-7": {"target": "T1, caspase-7 (Homo sapiens, UniProt P55210)", "T1 sequence (P55210 24-198 limits assumed)": "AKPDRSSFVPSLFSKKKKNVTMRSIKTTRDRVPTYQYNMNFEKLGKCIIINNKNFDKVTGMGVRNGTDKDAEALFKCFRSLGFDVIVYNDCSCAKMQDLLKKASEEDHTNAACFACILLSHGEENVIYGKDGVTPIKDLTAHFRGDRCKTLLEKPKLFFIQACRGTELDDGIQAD", "T1 sequence (P55210 207-303 limits assumed)": "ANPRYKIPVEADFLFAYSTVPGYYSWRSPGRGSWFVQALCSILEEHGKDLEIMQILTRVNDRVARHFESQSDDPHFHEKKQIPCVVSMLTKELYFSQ", "details": "reported, Garcia-Calvo et al. 1998; cited from earlier work"}, "caspase-8": {"target": "caspase-8 (Homo sapiens, UniProt Q14790)", "sequence (Q14790 217-374 limits assumed, one chain of several)": "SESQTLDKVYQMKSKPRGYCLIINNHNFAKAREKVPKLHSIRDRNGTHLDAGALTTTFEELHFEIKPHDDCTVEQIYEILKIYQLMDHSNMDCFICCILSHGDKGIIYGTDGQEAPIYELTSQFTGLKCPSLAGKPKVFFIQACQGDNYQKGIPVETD", "details": "reported, Garcia-Calvo et al. 1998; cited from earlier work"}, "caspase-1": {"target": "T2, caspase-1 (Homo sapiens, UniProt P29466)", "T2 sequence (P29466 120-297 limits assumed)": "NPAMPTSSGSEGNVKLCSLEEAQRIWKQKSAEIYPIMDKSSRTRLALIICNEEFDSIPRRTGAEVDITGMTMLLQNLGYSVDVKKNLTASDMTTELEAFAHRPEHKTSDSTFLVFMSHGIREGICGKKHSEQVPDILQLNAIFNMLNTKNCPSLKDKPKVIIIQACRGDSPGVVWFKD", "T2 sequence (P29466 317-404 limits assumed)": "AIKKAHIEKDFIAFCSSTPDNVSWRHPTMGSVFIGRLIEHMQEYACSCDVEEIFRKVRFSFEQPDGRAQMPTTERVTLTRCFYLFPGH", "details": "cited from earlier work; for Ki: reported, Garcia-Calvo et al. 1998"}, "Caspase-4": {"target": "T3, Caspase-4 (Homo sapiens, UniProt P49662)", "T3 sequence (P49662 81-270 limits assumed)": "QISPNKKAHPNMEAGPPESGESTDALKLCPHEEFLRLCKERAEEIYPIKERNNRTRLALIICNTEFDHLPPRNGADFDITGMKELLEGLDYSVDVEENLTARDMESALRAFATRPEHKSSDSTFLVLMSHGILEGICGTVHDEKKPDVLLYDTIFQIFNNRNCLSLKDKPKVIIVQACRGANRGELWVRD", "T3 sequence (P49662 290-377 limits assumed)": "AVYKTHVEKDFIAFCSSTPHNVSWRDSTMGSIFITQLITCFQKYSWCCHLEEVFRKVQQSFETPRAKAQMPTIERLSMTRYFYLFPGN", "details": "Garcia-Calvo et al. 1998; cited from earlier work"}, "Caspase-5": {"target": "T4, Caspase-5 (Homo sapiens, UniProt P51878)", "T4 sequence (P51878 137-327 limits assumed)": "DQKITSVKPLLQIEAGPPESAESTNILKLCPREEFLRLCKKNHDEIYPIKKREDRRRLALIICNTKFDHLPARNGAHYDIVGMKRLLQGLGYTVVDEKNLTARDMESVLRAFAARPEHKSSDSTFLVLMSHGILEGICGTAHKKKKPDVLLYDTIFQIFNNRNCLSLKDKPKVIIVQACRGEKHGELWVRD", "T4 sequence (P51878 347-434 limits assumed)": "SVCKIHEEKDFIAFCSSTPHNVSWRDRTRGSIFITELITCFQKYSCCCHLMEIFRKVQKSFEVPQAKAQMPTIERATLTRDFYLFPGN", "details": "Garcia-Calvo et al. 1998; cited from earlier work"}, "[1]": {"system": "all other group II and group III caspases except caspase-8", "details": "group II and group III caspases other than caspase-8; cited from earlier work"}, "group III caspases": {"system": "group III caspases", "details": "cited from earlier work"}, "[2]": {"target": "T5, Ac-DEVD-aminoemethylcoumarin", "T5 chain": "DEVD"}}}
{"molecule": "acetyl-Asp-Glu-Val-Asp-CHO [Ac-DEVD-CHO]", "values": [{"measurement": "Ki", "setting": "caspase-7", "value": 1.6, "unit": "nM"}, {"measurement": "Ki", "setting": "caspase-8", "value": 0.92, "unit": "nM"}, {"measurement": "Ki", "setting": "caspase-1", "value": 18, "unit": "nM"}]}
{"molecule": "AcWEHD-CHO (Ac-WEHD-aldehyde; SMILES CC(=O)N[C@@H](Cc1c[nH]c2ccccc12)C(=O)N[C@@H](CCC(=O)O)C(=O)N[C@@H](Cc1c[nH]cn1)C(=O)N[C@H](C=O)CC(=O)O)", "values": [{"measurement": "Ki", "setting": "Caspase-4", "value": 97, "unit": "nM"}, {"measurement": "Ki", "setting": "caspase-8", "value": 21, "unit": "nM"}, {"measurement": "Ki", "setting": "caspase-1", "value": 0.056, "unit": "nM"}, {"measurement": "Ki", "setting": "Caspase-5", "value": 43, "unit": "nM"}, {"measurement": "inhibition of all other group II and group III caspases except caspase-8 (in words)", "setting": "[1]", "value": "poor inhibitor"}]}
{"molecule": "Ac-YVAD-CHO: tetrapeptide aldehyde inhibitor, SEQ ID NO: 4", "values": [{"measurement": "inhibitory potency against group III caspases (in words)", "setting": "group III caspases", "value": "modest inhibitory potency"}, {"measurement": "inhibitory potency against caspase-1 (in words)", "setting": "caspase-1", "value": "good inhibitory potency"}]}
{"molecule": "B1", "values": [{"measurement": "kcat/Km", "setting": "[2]", "value": "both enzymes appear to be indistinguishable, yielding a kcat/Km of 1×10^5 Ml-s^1-^1"}]}
{"molecule": "B2", "values": [{"measurement": "kcat/Km", "setting": "[2]", "value": "both enzymes appear to be indistinguishable, yielding a kcat/Km of 1×10^5 Ml-s^1-^1"}]}
